# ± gives the standard deviation of the averaged measurements.
# System: Sindbis virus TE/5'2J-GFP
# Assay: percent infected (GFP+ in RFP+ ISG-expressing cells); higher = more infection (less antiviral activity)
# Protocol: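 Confirmatory testing of 87 ISGs. Triplicate wells of BHK/HA-Zeo (control) or BHK/NZAP-Zeo (ZAP) cells were transduced with lentiviruses co-expressing a human ISG plus TagRFP, then infected 48 h later with SINV TE/5'2J-GFP (moi 5). The % GFP+ cells among RFP+ cells was measured by flow cytometry at 8 h post infection. Fluc lentivirus served as control. Three independent experiments.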
# [1] = experiment: confirmatory screen 1, BHK/HA-Zeo (control)
# [2] = experiment: confirmatory screen 1, BHK/NZAP-Zeo (ZAP)
# [3] = experiment: confirmatory screen 2, BHK/HA-Zeo (control)
# [4] = experiment: confirmatory screen 2, BHK/NZAP-Zeo (ZAP)
# [5] = experiment: confirmatory screen 3, BHK/HA-Zeo (control)
# [6] = experiment: confirmatory screen 3, BHK/NZAP-Zeo (ZAP)
# 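Also: Interferon-defective BHK-21 derivatives, ZAP line overexpressing the rat ZAP N-terminal zinc finger domain fused to Zeocin resistance, GFP scored within live singlet TagRFP+ cells.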
Substance,percent infected [1] [%],percent infected [2] [%],percent infected [3] [%],percent infected [4] [%],percent infected [5] [%],percent infected [6] [%]
MSSILPFTPPIVKRLLGWKKGEQNGQEEKWCEKAVKSLVKKLKKTGQLDELEKAITTQNVNTKCITIPRSLDGRLQVSHRKGLPHVIYCRLWRWPDLHSHHELRAMELCEFAFNMKKDEVCVNPYHYQRVETPVLPPVLVPRHTEIPAEFPPLDDYSHSIPENTNFPAGIEPQSNIPETPPPGYLSEDGETSDHQMNHSMDAGSPNLSPNPMSPAHNNLDLQPVTYCEPAFWCSISYYELNQRVGETFHASQPSMTVDGFTDPSNSERFCLGLLSNVNRNAAVELTRRHIGRGVRLYYIGGEVFAECLSDSAIFVQSPNCNQRYGWHPATVCKIPPGCNLKIFNNQEFAALLAQSVNQGFEAVYQLTRMCTIRMSFVKGWGAEYRRQTVTSTPCWIELHLNGPLQWLDKVLTQMGSPSIRCSSVS [SMAD3],77.4 ± 2.3,40.7 ± 1.2,93.92 ± 0.8,94.56 ± 0.45,80.2 ± 1.3,88.2 ± 1.7
MLQRGLWPWRTRLLPTPGTWRPARPWPLPPPPQVLRVKLCGNVKYYQSHHYSTVVPPDEITVIYRHGLPLVTLTLPSRKERCQFVVKPMLSTVGSFLQDLQNEDKGIKTAAIFTADGNMISASTLMDILLMNDFKLVINKIAYDVQCPKREKPSNEHTAEMEHMKSLVHRLFTILHLEESQKKREHHLLEKIDHLKEQLQPLEQVKAGIEAHSEAKTSGLLWAGLALLSIQGGALAWLTWWVYSWDIMEPVTYFITFANSMVFFAYFIVTRQDYTYSAVKSRQFLQFFHKKSKQQHFDVQQYNKLKEDLAKAKESLKQARHSLCLQMQVEELNEKN [CCDC109B],92.6 ± 2.3,57.4 ± 2,97.29 ± 0.17,95.61 ± 0.13,95.11 ± 0.48,93.64 ± 0.74
MMFRDQVGVLAGWFKGWNECEQTVALLSLLKRVSQTQARFLQLCLEHSLADCAELHVLEREANSPGIINQWQQESKDKVISLLLTHLPLLKPGNLDAKVEYMKLLPKILAHSIEHNQHIEESRQLLSYALIHPATSLEDRSALAMWLNHLEDRTSTSFGGQNRGRSDSVDYGQTHYYHQRQNSDDKLNGWQNSRDSGICINASNWQDKSMGCENGHVPLYSSSSVPTTINTIGTSTSTILSGQAHHSPLKRSVSLTPPMNVPNQPLGHGWMSHEDLRARGPQCLPSDHAPLSPQSSVASSGSGGSEHLEDQTTARNTFQEEGSGMKDVPAWLKSLRLHKYAALFSQMTYEEMMALTECQLEAQNVTKGARHKIVISIQKLKERQNLLKSLERDIIEGGSLRIPLQELHQMILTPIKAYSSPSTTPEARRREPQAPRQPSLMGPESQSPDCKDGAAATGATATPSAGASGGLQPHQLSSCDGELAVAPLPEGDLPGQFTRVMGKVCTQLLVSRPDEENISSYLQLIDKCLIHEAFTETQKKRLLSWKQQVQKLFRSFPRKTLLDISGYRQQRNRGFGQSNSLPTAGSVGGGMGRRNPRQYQIPSRNVPSARLGLLGTSGFVSSNQRNTTATPTIMKQGRQNLWFANPGGSNSMPSRTHSSVQRTRSLPVHTSPQNMLMFQQPEFQLPVTEPDINNRLESLCLSMTEHALGDGVDRTSTI [SAMD4A],80.4 ± 0.93,12.5 ± 0.52,92.98 ± 0.71,93.39 ± 0.29,83.1 ± 1.3,84.55 ± 0.77
MRTSYLLLFTLCLLLSEMASGGNFLTGLGHRSDHYNCVSSGGQCLYSACPIFTKIQGTCYRGKAKCCK [DEFB1],97.13 ± 0.85,84.4 ± 1.1,95.11 ± 0.27,92.98 ± 0.91,91.66 ± 0.67,92.239 ± 0.055
MDFKIEHTWDGFPVKHEPVFIRLNPGDRGVMMDISAPFFRDPPAPLGEPGKPFNELWDYEVVEAFFLNDITEQYLEVELCPHGQHLVLLLSGRRNVWKQELPLSFRMSRGETKWEGKAYLPWSYFPPNVTKFNSFAIHGSKDKRSYEALYPVPQHELQQGQKPDFHCLEYFKSFNFNTLLGEEWKQPESDLWLIEKCDI [C4orf33],96.1 ± 1.3,85.8 ± 1.1,96.38 ± 0.37,94.84 ± 0.39,93.81 ± 0.1,93.56 ± 0.3
MLRAGAPTGDLPRAGEVHTGTTIMAVEFDGGVVMGSDSRVSAGEAVVNRVFDKLSPLHERIYCALSGSAADAQAVADMAAYQLELHGIELEEPPLVLAAANVVRNISYKYREDLSAHLMVAGWDQREGGQVYGTLGGMLTRQPFAIGGSGSTFIYGYVDAAYKPGMSPEECRRFTTDAIALAMSRDGSSGGVIYLVTITAAGVDHRVILGNELPKFYDE [PSMB9],80 ± 1.9,24.2 ± 0.77,90.2 ± 1.4,91.27 ± 0.32,87.59 ± 0.53,83.1 ± 1.6
TIMP1,94.88 ± 0.13,66.4 ± 2.3,94.66 ± 0.28,93.37 ± 0.42,90.3 ± 1.8,92.63 ± 0.18
MRRLWGAARKPSGAGWEKEWAEAPQEAPGAWSGRLGPGRSGRKGRAVPGWASWPAHLALAARPARHLGGAGQGPRPLHSGTAPFHSRASGERQRRLEPQLQHESRCRSSTPADAWRAEAALPVRAMGAPWGSPTAAAGGRRGWRRGRGLPWTVCVLAAAGLTCTALITYACWGQLPPLPWASPTPSRPVGVLLWWEPFGGRDSAPRPPPDCRLRFNISGCRLLTDRASYGEAQAVLFHHRDLVKGPPDWPPPWGIQAHTAEEVDLRVLDYEEAAAAAEALATSSPRPPGQRWVWMNFESPSHSPGLRSLASNLFNWTLSYRADSDVFVPYGYLYPRSHPGDPPSGLAPPLSRKQGLVAWVVSHWDERQARVRYYHQLSQHVTVDVFGRGGPGQPVPEIGLLHTVARYKFYLAFENSQHLDYITEKLWRNALLAGAVPVVLGPDRANYERFVPRGAFIHVDDFPSASSLASYLLFLDRNPAVYRRYFHWRRSYAVHITSFWDEPWCRVCQAVQRAGDRPKSIRNLASWFER [FUT4],94.45 ± 0.48,62.4 ± 5.3,92 ± 1.1,94.23 ± 0.27,89 ± 2.8,92.68 ± 0.55
MGAQLCFEANAKAPREALRFHAEAKGAQVRLDTRGCIAHRRTTFHDGIVFSQRPVRLGERVALRVLREESGWCGGLRVGFTRLDPACVSVPSLPPFLCPDLEEQSPTWAAVLPEGCALTGDLVRFWVDRRGCLFAKVNAGCRLLLREGVPVGAPLWAVMDVYGTTKAIELLDPTASRLPTPMPWDLSNKAVPEPKATPGEECAICFYHAANTRLVPCGHTYFCRYCAWRVFSDTAKCPVCRWQIEAVAPAQGPPALRVEEGS [LINCR],97.12 ± 0.12,85 ± 1.6,94.5 ± 0.3,94.39 ± 0.54,91.97 ± 0.65,93.27 ± 0.19
MRSARSTALNRGEQRAVRYYSHMKLNMAEEEDYMSDSFINVQEDIRPGLPMLRQIREARRKEEKQQEANLKNRQKSLKEEEQERRDIGLKNALGCENKGFALLQKMGYKSGQALGKSGGGIVEPIPLNIKTGKSGIGHEASLKRKAEEKLESYRKKIHMKNQAEEKAAEQFRMRLKNKQDEMKLEGDLRRSQRACQQLDVQKNIQVPREAWYWLRLEEETEEDEEEKEQDEDEYKSEDLSVLEKLQILTSYLREEHLYCIWCGTAYEDKEDLSSNCPGPTSADHD [CCDC75],93.8 ± 1.8,56.8 ± 4.7,96.02 ± 0.47,95.39 ± 0.41,94.54 ± 0.85,92.82 ± 0.32
MEVTTRLTWNDENHLRKLLGNVSLSLLYKSSVHGGSIEDMVERCSRQGCTITMAYIDYNMIVAFMLGNYINLHESSTEPNDSLWFSLQKKNDTTEIETLLLNTAPKIIDEQLVCRLSKTDIFIICRDNKIYLDKMITRNLKLRFYGHRQYLECEVFRVEGIKDNLDDIKRIIKAREHRNRLLADIRDYRPYADLVSEIRILLVGPVGSGKSSFFNSVKSIFHGHVTGQAVVGSDITSITERYRIYSVKDGKNGKSLPFMLCDTMGLDGAEGAGLCMDDIPHILKGCMPDRYQFNSRKPITPEHSTFITSPSLKDRIHCVAYVLDINSIDNLYSKMLAKVKQVHKEVLNCGIAYVALLTKVDDCSEVLQDNFLNMSRSMTSQSRVMNVHKMLGIPISNILMVGNYASDLELDPMKDILILSALRQMLRAADDFLEDLPLEETGAIERALQPCI [IFI44L],94.86 ± 0.39,67.5 ± 2.4,96.87 ± 0.21,94.83 ± 0.34,83.6 ± 1.6,85.31 ± 0.85
